Results from the Immune Epitope Database (IEDB).

Legend:
[1] = target: HLA-B*40:01; assay: IEDB peptide-MHC binding, purified MHC/competitive/radioactivity; filed as Kd, often an IC50 or EC50 that approximates it; ≥ and ≤ were set here for values at or beyond the usual limits of such assays
[2] = target: HLA-B*44:02; assay: as above
[3] = target: HLA-B*44:03; assay: as above
[4] = target: HLA-A*23:01; assay: as above
[5] = target: HLA-A*29:02; assay: as above
[6] = target: HLA-A*30:02; assay: as above
[7] = target: HLA-A*01:01; assay: as above
[8] = target: HLA-A*24:02; assay: as above
[9] = target: HLA-A*26:01; assay: as above
[10] = target: HLA-B*57:01; assay: IEDB peptide-MHC binding, purified MHC/direct/fluorescence; filed as Kd, often an IC50 or EC50 that approximates it; ≥ and ≤ were set here for values at or beyond the usual limits of such assays
[11] = target: HLA-B*58:01; assay: as above
[12] = target: HLA-B*15:01; assay: IEDB peptide-MHC binding, purified MHC/competitive/radioactivity; filed as Kd, often an IC50 or EC50 that approximates it; ≥ and ≤ were set here for values at or beyond the usual limits of such assays
[13] = target: HLA-A*33:01; assay: as above; details: source organism: Vaccinia virus WR
[14] = target: HLA-A*31:01; assay: as above; details: source organism: Vaccinia virus WR
[15] = target: HLA-A*11:01; assay: as above
[16] = target: HLA-A*03:01; assay: as above
[17] = target: HLA-A*68:01; assay: as above
[18] = target: HLA-B*15:01; assay: IEDB peptide-MHC binding, purified MHC/competitive/fluorescence; filed as Kd, often an IC50 or EC50 that approximates it; ≥ and ≤ were set here for values at or beyond the usual limits of such assays
[19] = target: HLA-B*53:01; assay: IEDB peptide-MHC binding, purified MHC/competitive/radioactivity; filed as Kd, often an IC50 or EC50 that approximates it; ≥ and ≤ were set here for values at or beyond the usual limits of such assays
[20] = target: HLA-B*46:01; assay: IEDB peptide-MHC binding, purified MHC/competitive/fluorescence; filed as Kd, often an IC50 or EC50 that approximates it; ≥ and ≤ were set here for values at or beyond the usual limits of such assays
[21] = target: HLA-A*30:01; assay: IEDB peptide-MHC binding, purified MHC/competitive/radioactivity; filed as Kd, often an IC50 or EC50 that approximates it; ≥ and ≤ were set here for values at or beyond the usual limits of such assays
[22] = target: HLA-B*46:01; assay: IEDB peptide-MHC binding, purified MHC/direct/fluorescence; filed as Kd, often an IC50 or EC50 that approximates it; ≥ and ≤ were set here for values at or beyond the usual limits of such assays; details: source organism: West Nile virus
[23] = target: HLA-A*02:01; assay: IEDB peptide-MHC binding, purified MHC/competitive/fluorescence; filed as Kd, often an IC50 or EC50 that approximates it; ≥ and ≤ were set here for values at or beyond the usual limits of such assays; details: source organism: Escherichia coli B171
[24] = source organism: Dengue virus 2 Jamaica/1409/1983
[25] = source organism: Dengue virus 1 Singapore/S275/1990
[26] = source organism: Mammarenavirus lassaense
[27] = source organism: Yersinia pestis Antiqua
[28] = source organism: SARS coronavirus Tor2
[29] = source organism: Lassa virus Josiah
[30] = source organism: Vaccinia virus WR
[31] = source organism: Mammarenavirus juninense
[32] = source organism: Mammarenavirus brazilense
[33] = source organism: Dengue virus 4 Philippines/H241/1956
[34] = source organism: Influenza A virus
[35] = source organism: Lymphocytic choriomeningitis virus (strain Armstrong)
[36] = source organism: Mammarenavirus machupoense
[37] = source organism: Dengue virus 3 Martinique/1243/1999
[38] = source organism: Vaccinia virus Copenhagen
[39] = source organism: Dengue virus 1 Brazil/97-11/1997
[40] = source organism: Giardia lamblia ATCC 50803

AEHTGREIV
Kd [1, 24]: 62.4 nM

AENHHHATML
Kd [2, 25]: 55.7 nM
Kd [1, 25]: 39.9 nM
Kd [3, 25]: 189 nM

AGFVAGLTY
Kd [4, 26]: 8020 nM
Kd [5, 26]: 130 nM
Kd [6, 26]: 520 nM
Kd [7, 26]: ≥ 35300 nM
Kd [8, 26]: ≥ 52600 nM
Kd [9, 26]: ≥ 77900 nM

ASSALDAHF
Kd [10, 27]: 396 nM
Kd [11, 27]: 4.4 nM

AWLVHRQWF
Kd [4, 24]: 340 nM
Kd [8, 24]: 164 nM

DPAKAYKDY
Kd [4, 28]: ≥ 77800 nM
Kd [5, 28]: 446 nM
Kd [6, 28]: 9270 nM
Kd [7, 28]: ≥ 119000 nM
Kd [8, 28]: ≥ 77600 nM
Kd [9, 28]: ≥ 85500 nM

EGKDTPGGY
Kd [4, 29]: ≥ 63200 nM
Kd [5, 29]: ≥ 78900 nM
Kd [6, 29]: ≥ 76900 nM
Kd [7, 29]: ≥ 37900 nM
Kd [8, 29]: ≥ 77500 nM
Kd [9, 29]: ≥ 77900 nM

EIKTGISSF
Kd [12, 30]: 89.9 nM

EISSTFNRF
Kd [12, 30]: 131 nM

ELADTSLSGY
Kd [4, 28]: ≥ 70000 nM
Kd [5, 28]: 89.2 nM
Kd [6, 28]: 76.7 nM
Kd [7, 28]: 73.6 nM
Kd [8, 28]: ≥ 70300 nM
Kd [9, 28]: 24.5 nM

EMVCFHEFL
Kd [4, 31]: 1990 nM
Kd [5, 31]: ≥ 10000 nM
Kd [8, 31]: 16900 nM

EQKAYVPAM
Kd [12, 30]: 0.773 nM

ESASKSASVY
Kd [4, 28]: ≥ 70000 nM
Kd [5, 28]: 374 nM
Kd [6, 28]: 659 nM
Kd [7, 28]: 300 nM
Kd [8, 28]: ≥ 70300 nM
Kd [9, 28]: 286 nM

EYGFTRRFKF
Kd [4, 32]: 45.3 nM
Kd [5, 32]: 133 nM
Kd [8, 32]: 134 nM

FEEYKRSGI
Kd [1, 33]: 1290 nM

FIESSICLDY
Kd [13]: 5650 nM
Kd [5, 30]: ≥ 40500 nM
Kd [14]: 10100 nM
Kd [15, 30]: 3930 nM
Kd [16, 30]: 2920 nM
Kd [17, 30]: 964 nM

FLCDDTITY
Kd ([18]; source organism: West Nile virus): 298 nM

FPQSNSPIE
Kd [19, 33]: 243 nM

FQNVNKITY
Kd [18, 34]: 154 nM
Kd [20, 34]: 3000 nM

FQPQNGQFI
Kd [4, 35]: ≥ 20400 nM
Kd [5, 35]: ≥ 78900 nM
Kd [6, 35]: ≥ 76900 nM
Kd [7, 35]: ≥ 78100 nM
Kd [8, 35]: 1260 nM
Kd [9, 35]: ≥ 77900 nM

FYLCFLAFLL
Kd [4, 28]: 0.0676 nM
Kd [5, 28]: 76.7 nM
Kd [6, 28]: ≥ 85700 nM
Kd [7, 28]: ≥ 52500 nM
Kd [8, 28]: 13.6 nM
Kd [9, 28]: ≥ 69700 nM

GECIKTCVF
Kd [12, 30]: 115 nM

GEHKKLAEAI
Kd [1, 24]: 53.7 nM

GERSRCYSVY
Kd [4, 36]: ≥ 49100 nM
Kd [5, 36]: ≥ 71400 nM
Kd [6, 36]: 4510 nM
Kd [7, 36]: ≥ 70400 nM
Kd [8, 36]: ≥ 70300 nM
Kd [9, 36]: ≥ 69700 nM

GGSLVRCPLS
Kd [21, 33]: 2430 nM

GIFPYSIPAT
Kd ([21]; source organism: Dengue virus 3 Sri Lanka/1266/2000): ≥ 70400 nM

GTIMVSEHF
Kd [12, 30]: 57.4 nM

GVPLLAIGCY
Kd [6, 24]: 3350 nM
Kd [9, 24]: 128 nM

HEWMTTEDM
Kd [2, 24]: 1960 nM
Kd [1, 24]: 381 nM
Kd [3, 24]: 1530 nM

HTSEHGGRAY
Kd [12, 37]: 146 nM
Kd [6, 37]: ≥ 44100 nM
Kd [7, 37]: 1030 nM
Kd [9, 37]: 163 nM

HVKAFYKFI
Kd [21, 30]: 0.346 nM

IFFASFYYI
Kd [4, 28]: 6.45 nM
Kd [5, 28]: 28.1 nM
Kd [6, 28]: 5130 nM
Kd [7, 28]: 1300 nM
Kd [8, 28]: 12.2 nM
Kd [9, 28]: 1800 nM

ISQHNHRPGY
Kd [6, 37]: 99.8 nM
Kd [7, 37]: 15000 nM
Kd [21, 37]: 12.2 nM

IWYMWLGARF
Kd [4, 24]: 8.27 nM
Kd [8, 24]: 6.14 nM

KCLNIMLGK
Kd [21, 32]: 24.9 nM

KFADDLNQM
Kd [4, 28]: 659 nM
Kd [5, 28]: 124 nM
Kd [6, 28]: ≥ 30000 nM
Kd [7, 28]: ≥ 78100 nM
Kd [8, 28]: 1500 nM
Kd [9, 28]: ≥ 44300 nM

KIEELFYSY
Kd [4, 28]: ≥ 23900 nM
Kd [5, 28]: 39.2 nM
Kd [6, 28]: 11.6 nM
Kd [7, 28]: 540 nM
Kd [8, 28]: ≥ 20700 nM
Kd [9, 28]: ≥ 81500 nM

KIMKVVNRW
Kd ([10]; source organism: Yellow fever virus): 131 nM

KNRNSKRSV
Kd [21, 30]: 32.7 nM

KTKRYLPAI
Kd [21, 24]: 100 nM

KVRKIISKI
Kd [21, 30]: 27.2 nM

KVVRLTPQV
Kd [21, 30]: 178 nM

KWDLIISDMY
Kd [4, 28]: ≥ 70000 nM
Kd [5, 28]: 253 nM
Kd [6, 28]: 85.9 nM
Kd [7, 28]: ≥ 90900 nM
Kd [8, 28]: ≥ 39400 nM
Kd [9, 28]: ≥ 20700 nM

KYKQSNTNK
Kd [21, 30]: 103 nM

LAIPATEFF
Kd [12, 30]: 4.16 nM

LAPFNFLVF
Kd [12, 30]: 135 nM

LGFDVVAYF
Kd [12, 38]: 67.3 nM

LGRANITHF
Kd [12, 30]: 6.73 nM

LIIKLLLPG
Kd [12, 30]: 1120 nM

LLLMRTTWAF
Kd [4, 33]: 694 nM
Kd [12, 33]: 1.24 nM
Kd [8, 33]: 292 nM

LMNDPGAPW
Kd [22]: 8980 nM

LQGRGPLKLF
Kd [12, 24]: 135 nM

LQRKHGGML
Kd [12, 37]: 31.2 nM

LSKNTFYLF
Kd [12, 30]: 14.2 nM

LVRSTVSSI
Kd [12, 38]: 527 nM

MTDKTPVHSW
Kd [2, 33]: 1410 nM
Kd [19, 33]: 891 nM

NGVVTTSGTY
Kd [6, 39]: 694 nM

NPAQEDDQY
Kd [19, 33]: 746 nM

NVRYVFLYK
Kd [21, 30]: 9.89 nM

RASGSYISG
Kd [21, 30]: 589 nM

RDKRSVALA
Kd [21, 39]: 1990 nM

RKKARSTPFN
Kd [21, 24]: 3820 nM

RLSNGMPTV
Kd [21, 30]: 9270 nM

RMAILGETAW
Kd [2, 33]: 1620 nM
Kd [12, 33]: 253 nM

RTEAKSALK
Kd [15, 33]: 177 nM
Kd [16, 33]: 87.6 nM
Kd [21, 33]: 476 nM

RTHFSQPSG
Kd [21, 30]: 14.6 nM

RVSVSAILL
Kd [21, 30]: 14.7 nM

SAKNSWLNL
Kd [21, 30]: 0.574 nM

SARGLCNTW
Kd [10, 40]: 112 nM
Kd [11, 40]: 56.5 nM

SEIPNLDII
Kd [1, 24]: 112 nM
Kd [3, 24]: 60.4 nM

STLRTLKPY
Kd ([18]; source organism: Bacillus cereus G9241): 148 nM

SYAQMWSLMY
Kd ([6]; source organism: Dengue virus 2 Peru/IQT2913/1996): ≥ 69700 nM

TPRMCTREEF
Kd [19, 24]: 1300 nM

TVFIRFPHY
Kd [12, 30]: 123 nM
Kd [21, 30]: 1270 nM

VEETNMITLL
Kd ([1]; source organism: Dengue virus 4 Dominica/814669/1981): 25 nM

VQYRGLYQI
Kd ([18]; source organism: Escherichia coli B171): 107 nM
Kd [23]: 125 nM

VSENTGMGMY
Kd [13]: ≥ 24200 nM
Kd [5, 30]: 34 nM
Kd [14]: 13400 nM
Kd [15, 30]: 2360 nM
Kd [16, 30]: 1620 nM
Kd [17, 30]: ≥ 36900 nM

VSYSTFCLG
Kd [12, 30]: 710 nM

VTFKNPHAK
Kd [15, 24]: 137 nM
Kd [16, 24]: 9.59 nM
Kd [21, 24]: 278 nM
Kd [17, 24]: 133 nM

VVRLLTKPWD
Kd [21, 24]: 3780 nM

WENNIKLTV
Kd [1, 37]: 120 nM

WMVHRQWFF
Kd [4, 37]: 125 nM
Kd [8, 37]: 835 nM

YIGGTTQAF
Kd ([20]; source organism: Francisella tularensis subsp. tularensis FSC198): 4420 nM
